Measured values reported in US20140154243A1 (Amgen, published 2014).
One block for each binder: values may come before it.

How the values were obtained:
[1] = molecular target: T1, human hepatocyte growth factor (HGF) (human, UniProt P14210 32-728); test: cell-based or functional assay
[2] = molecular target: human HGF-avidin fusion protein with the point mutation hHGFR647Q (chicken; human, UniProt P02701 25-152; P14210 32-728, limits assumed); test: avidin fusion protein captured on biotin-coated beads, PE anti-human F(ab')2, FACS
human HGF-avidin fusion protein with the point mutation hHGFR647Q, sequence (P02701 other isoform, or with tags, fused parts or gaps limits assumed): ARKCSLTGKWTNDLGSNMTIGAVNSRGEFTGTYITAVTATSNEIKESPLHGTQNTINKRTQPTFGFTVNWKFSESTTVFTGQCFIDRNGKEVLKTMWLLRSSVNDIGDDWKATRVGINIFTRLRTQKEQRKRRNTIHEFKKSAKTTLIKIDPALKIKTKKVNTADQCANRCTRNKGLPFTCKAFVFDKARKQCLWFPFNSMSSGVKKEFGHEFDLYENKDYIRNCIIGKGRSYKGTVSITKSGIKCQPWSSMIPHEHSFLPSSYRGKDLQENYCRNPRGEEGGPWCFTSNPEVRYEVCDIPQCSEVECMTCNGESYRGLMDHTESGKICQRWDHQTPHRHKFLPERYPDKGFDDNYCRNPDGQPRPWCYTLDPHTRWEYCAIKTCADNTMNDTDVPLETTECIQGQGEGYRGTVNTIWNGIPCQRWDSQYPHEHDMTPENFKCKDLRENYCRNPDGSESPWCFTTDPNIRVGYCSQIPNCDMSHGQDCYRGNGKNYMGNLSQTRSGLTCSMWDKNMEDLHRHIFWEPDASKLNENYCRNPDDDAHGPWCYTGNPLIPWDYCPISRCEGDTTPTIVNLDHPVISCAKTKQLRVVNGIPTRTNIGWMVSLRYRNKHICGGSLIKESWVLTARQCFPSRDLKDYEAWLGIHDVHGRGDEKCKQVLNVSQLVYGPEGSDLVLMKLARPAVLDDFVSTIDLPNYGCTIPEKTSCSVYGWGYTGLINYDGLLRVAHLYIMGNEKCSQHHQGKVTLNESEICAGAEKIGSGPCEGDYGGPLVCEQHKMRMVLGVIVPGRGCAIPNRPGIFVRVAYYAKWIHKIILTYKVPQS
Method: (§1) These constructs were expressed and subjected to binding analysis as described in Examples 8C and 8D. […] The resulting bead-protein complexes were labeled by adding FITC labeled anti-avidin antibody (Vector Lab, Burlingame, Calif., Cat. # SP-2040). The presence of antibodies to HGF was determined by adding phycoerythrin (PE) labeled goat anti-human F(ab′)2 antibody (Southern Biotech Associates, Inc, Birmingham, Ala., Cat #2043-09). Those samples were then subjected to Fluorescence Activated Cell Sorter (FACS) analysis. Bead complexes labeled by FITC (which indicated the presence of avidin) and/or PE (which indicated the presence of antibody to HGF) were detected on a Becton Dickinson Bioscience FACScan (BD, Franklin Lakes, N.J.). In some cases, after expression normalization using FITC, single-color FACS analysis was performed following antibody binding by the PE label. This method increased the sensitivity of the assay and aided the measurement of binding with constructs that were not expressed at very high levels.

[3] = molecular target: human HGF-avidin fusion protein with the point mutation hHGFD592N (chicken; human, UniProt P02701 25-152; P14210 32-728, limits assumed); test: as above
human HGF-avidin fusion protein with the point mutation hHGFD592N, sequence (P02701 other isoform, or with tags, fused parts or gaps limits assumed): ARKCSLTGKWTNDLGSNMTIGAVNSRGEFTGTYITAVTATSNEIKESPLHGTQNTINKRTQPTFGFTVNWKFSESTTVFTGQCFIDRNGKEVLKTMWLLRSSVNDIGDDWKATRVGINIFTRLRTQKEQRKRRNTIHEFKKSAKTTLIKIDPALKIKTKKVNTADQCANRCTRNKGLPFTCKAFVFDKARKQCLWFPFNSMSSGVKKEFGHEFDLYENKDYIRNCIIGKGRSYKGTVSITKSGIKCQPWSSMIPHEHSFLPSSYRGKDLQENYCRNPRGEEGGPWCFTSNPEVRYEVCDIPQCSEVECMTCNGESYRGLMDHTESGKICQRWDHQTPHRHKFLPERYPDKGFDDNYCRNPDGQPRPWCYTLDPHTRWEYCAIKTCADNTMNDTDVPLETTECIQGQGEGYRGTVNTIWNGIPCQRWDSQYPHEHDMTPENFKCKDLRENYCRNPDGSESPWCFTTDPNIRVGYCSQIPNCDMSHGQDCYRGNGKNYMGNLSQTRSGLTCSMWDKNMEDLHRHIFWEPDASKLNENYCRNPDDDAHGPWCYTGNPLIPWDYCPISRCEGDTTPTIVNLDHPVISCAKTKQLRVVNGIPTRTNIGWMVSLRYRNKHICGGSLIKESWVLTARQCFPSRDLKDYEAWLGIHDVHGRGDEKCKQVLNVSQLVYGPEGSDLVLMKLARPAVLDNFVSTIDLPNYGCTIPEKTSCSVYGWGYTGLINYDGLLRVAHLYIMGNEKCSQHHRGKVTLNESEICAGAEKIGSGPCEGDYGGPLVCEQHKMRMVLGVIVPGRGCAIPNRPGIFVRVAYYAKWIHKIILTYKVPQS
Method: as §1

[4] = molecular target: human HGF-avidin fusion protein with the point mutation hHGFN601S (chicken; human, UniProt P02701 25-152; P14210 32-728, limits assumed); test: as above
human HGF-avidin fusion protein with the point mutation hHGFN601S, sequence (P02701 other isoform, or with tags, fused parts or gaps limits assumed): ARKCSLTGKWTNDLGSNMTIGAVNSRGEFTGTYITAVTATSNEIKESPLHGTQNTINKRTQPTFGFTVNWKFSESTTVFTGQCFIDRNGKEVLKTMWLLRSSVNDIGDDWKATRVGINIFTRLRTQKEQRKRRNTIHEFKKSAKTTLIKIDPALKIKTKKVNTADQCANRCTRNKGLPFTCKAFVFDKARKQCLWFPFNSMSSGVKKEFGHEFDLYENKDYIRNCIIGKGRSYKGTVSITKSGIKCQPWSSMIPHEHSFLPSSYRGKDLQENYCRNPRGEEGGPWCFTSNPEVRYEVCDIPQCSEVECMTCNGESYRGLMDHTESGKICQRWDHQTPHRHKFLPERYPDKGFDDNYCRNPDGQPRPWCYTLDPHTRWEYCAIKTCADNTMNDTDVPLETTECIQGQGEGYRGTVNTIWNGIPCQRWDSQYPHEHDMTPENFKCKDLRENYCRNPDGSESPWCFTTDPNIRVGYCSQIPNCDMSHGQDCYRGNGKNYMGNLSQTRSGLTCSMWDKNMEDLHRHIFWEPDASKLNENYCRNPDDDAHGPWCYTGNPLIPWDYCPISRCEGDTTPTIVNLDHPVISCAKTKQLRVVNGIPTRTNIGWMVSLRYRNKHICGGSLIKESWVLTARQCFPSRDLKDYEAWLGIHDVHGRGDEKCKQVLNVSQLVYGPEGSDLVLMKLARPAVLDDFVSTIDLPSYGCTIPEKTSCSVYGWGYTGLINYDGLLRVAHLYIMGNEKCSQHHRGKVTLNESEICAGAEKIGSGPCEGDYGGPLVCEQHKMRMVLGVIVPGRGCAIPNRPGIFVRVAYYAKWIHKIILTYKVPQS
Method: as §1

[5] = molecular target: human HGF-avidin fusion protein with the point mutation hHGFG555E (chicken; human, UniProt P02701 25-152; P14210 32-728, limits assumed); test: as above
human HGF-avidin fusion protein with the point mutation hHGFG555E, sequence (P02701 other isoform, or with tags, fused parts or gaps limits assumed): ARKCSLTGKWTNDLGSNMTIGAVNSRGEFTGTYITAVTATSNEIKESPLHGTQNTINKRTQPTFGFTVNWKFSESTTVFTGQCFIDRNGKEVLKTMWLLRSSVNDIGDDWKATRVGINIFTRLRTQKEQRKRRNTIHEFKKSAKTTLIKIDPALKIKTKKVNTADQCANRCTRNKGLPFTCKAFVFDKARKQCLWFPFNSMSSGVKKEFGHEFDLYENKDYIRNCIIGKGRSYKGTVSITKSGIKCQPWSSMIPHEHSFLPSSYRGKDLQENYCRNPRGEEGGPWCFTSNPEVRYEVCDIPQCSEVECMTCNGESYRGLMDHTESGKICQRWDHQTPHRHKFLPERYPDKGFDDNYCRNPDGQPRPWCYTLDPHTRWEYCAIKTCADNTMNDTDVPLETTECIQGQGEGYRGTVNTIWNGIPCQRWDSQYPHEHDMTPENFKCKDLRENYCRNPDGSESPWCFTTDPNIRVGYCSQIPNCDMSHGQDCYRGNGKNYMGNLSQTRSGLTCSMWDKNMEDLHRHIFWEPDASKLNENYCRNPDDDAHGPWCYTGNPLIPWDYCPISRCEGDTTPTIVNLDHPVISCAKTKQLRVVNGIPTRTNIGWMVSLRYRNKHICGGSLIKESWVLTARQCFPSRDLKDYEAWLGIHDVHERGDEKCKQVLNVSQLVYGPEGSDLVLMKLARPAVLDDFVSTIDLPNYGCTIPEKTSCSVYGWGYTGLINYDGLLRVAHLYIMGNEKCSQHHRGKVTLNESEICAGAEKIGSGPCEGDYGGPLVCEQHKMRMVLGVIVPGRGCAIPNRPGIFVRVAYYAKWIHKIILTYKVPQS
Method: as §1

[6] = molecular target: T2, human HGF-avidin fusion protein with a two amino acid insertion (mouse amino acids 540N and 541K) (chicken; human, UniProt P02701 25-152; P14210 32-728, limits assumed); test: as above
T2 construct: also called hHGF DK insertion
T2 sequence (P02701 other isoform, or with tags, fused parts or gaps limits assumed): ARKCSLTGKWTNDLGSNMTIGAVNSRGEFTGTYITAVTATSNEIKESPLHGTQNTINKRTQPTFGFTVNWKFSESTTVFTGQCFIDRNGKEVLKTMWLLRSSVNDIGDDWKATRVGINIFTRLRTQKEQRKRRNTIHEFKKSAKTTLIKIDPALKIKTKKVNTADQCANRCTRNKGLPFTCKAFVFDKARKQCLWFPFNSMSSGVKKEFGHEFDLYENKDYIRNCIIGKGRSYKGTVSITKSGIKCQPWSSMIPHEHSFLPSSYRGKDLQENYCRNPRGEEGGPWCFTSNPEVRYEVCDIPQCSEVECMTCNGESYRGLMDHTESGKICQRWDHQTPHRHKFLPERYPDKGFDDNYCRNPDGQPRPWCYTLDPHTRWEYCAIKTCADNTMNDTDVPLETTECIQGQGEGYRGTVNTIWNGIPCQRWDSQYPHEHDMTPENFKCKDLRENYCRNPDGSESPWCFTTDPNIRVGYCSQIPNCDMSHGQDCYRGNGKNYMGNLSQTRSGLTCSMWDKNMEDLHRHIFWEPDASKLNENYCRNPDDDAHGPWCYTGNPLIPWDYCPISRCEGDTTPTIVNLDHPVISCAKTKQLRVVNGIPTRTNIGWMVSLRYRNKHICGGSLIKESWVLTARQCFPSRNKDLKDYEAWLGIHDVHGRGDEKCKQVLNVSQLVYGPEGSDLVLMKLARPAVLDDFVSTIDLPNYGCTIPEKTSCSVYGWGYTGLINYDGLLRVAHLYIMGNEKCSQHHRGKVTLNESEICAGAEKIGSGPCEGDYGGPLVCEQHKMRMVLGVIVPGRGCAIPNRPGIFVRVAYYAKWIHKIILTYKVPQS
Method: as §1

[7] = molecular target: human HGF-avidin fusion protein with the point mutation hHGFC561R (chicken; human, UniProt P02701 25-152; P14210 32-728, limits assumed); test: as above
Method: as §1

[8] = molecular target: T1, human hepatocyte growth factor (HGF); test: neutralization ELISA (right table): inhibition of the binding of soluble Met (2 nM) to plate-coated HGF, detected with biotinylated anti-cMetR antibody and Eu-streptavidin; column head 'IC50 IP (nM)'
Method: A neutralization ELISA assay was developed to assess whether the antibodies discussed in Example 6 could interrupt Met-HGF binding. Delphia 96-well plates (Cat#: AAAND-0001, Wallac Inc., Gaithersburg, Md.) were coated with HGF by adding 100 μl of HGF at 6.25 μg/ml per well. The plates were incubated at 37° C. for 1 hour or at 4° C. overnight. The plates were then blocked with 5% BSA (Cat#50-61-00, KPL, Gaithersburg, Md.) in PBS containing 0.1% Tween 20 for 1 hour at room temperature with shaking.
Test samples were prepared by separately mixing soluble Met (2 nM, 0.256 μg/ml) with different concentrations of a particular antibody to HGF being tested. The concentrations tested were: 667 nM, 223 nM, 74.1 nM, 24.7 nM, 8.2 nM, 2.7 nM, 0.91 nM, 0.30 nM, 0.10 nM, and 0.034 nM. A volume of 100 μl of a test sample was added to each well of the plates. The plates were then incubated at 4° C. overnight and then washed 4 times with PBS containing 0.1% Tween 20. Next, 100 μl per well of Biotinylated anti-cMetR antibody (Cat#: BAF358, R&D Systems Inc., Minneapolis, Minn.) at 2 μg/ml, was added. […] The plates were then incubated for 2 hours with shaking, and were washed 4 times with PBS containing 0.1% Tween 20. Eu-streptavidin (1:1000 dilution in Assay buffer) (Cat#1244-360, Wallac Inc., Gaithersburg, Md.) was added and the plates were shaken at room temperature for 1 hour. The plates were then washed 4 times with PBS containing 0.1% Tween 20. Next, 100 μl of enhancement buffer (Wallac Inc., Cat#: 1244-105, Gaithersburg, Md.) was added. After at least for 5 minutes, the plates were read using Europium method on Victor 2 (1420 Multilabel Counter, Wallac Inc., Gaithersburg, Md.).
Percent inhibition of Met binding to HGF (i.e. neutralization) was calculated and IC₅₀ values were determined using the 4 parameter fit equation Excelfit, Version 2.0.6, (Microsoft Inc, Seattle, Wash.). In the presence of the antibodies to HGF discussed in Examples 6, Met binding to HGF was neutralized.

T1 sequence (P14210 32-728 limits assumed): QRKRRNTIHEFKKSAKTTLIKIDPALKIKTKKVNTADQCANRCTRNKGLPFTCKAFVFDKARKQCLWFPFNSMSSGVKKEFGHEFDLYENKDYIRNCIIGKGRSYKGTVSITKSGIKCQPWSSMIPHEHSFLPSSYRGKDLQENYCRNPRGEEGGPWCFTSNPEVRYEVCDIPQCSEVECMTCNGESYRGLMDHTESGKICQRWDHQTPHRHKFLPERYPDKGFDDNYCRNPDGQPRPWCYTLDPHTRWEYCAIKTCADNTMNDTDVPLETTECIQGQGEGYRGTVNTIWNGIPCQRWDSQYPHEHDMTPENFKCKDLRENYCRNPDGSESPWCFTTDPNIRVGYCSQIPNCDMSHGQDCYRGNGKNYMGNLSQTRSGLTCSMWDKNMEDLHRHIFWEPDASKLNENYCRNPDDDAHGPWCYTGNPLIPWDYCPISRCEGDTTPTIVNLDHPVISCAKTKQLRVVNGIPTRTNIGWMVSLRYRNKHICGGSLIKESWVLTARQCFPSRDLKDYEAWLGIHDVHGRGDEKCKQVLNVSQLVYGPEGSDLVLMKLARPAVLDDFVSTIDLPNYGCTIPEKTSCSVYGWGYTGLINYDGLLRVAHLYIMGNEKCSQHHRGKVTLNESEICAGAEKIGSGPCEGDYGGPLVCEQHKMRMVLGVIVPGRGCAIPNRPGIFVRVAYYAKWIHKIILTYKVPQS

binding result [2]: binds
binding result [3]: binds
binding result [4]: binds
binding result [5]: no binding
binding result [6]: no binding
binding result [7]: no binding
IC50 [8]: 0.52 nM
B1: antibody 2.12.1 (antibody, human IgG2, kappa, V domains shown)
VH: QVQLQESGPGLVKPSETLSLTCTVSGGSISIYYWSWIRQPPGKGLEWIGYVYYSGSTNYNPSLKSRVTISVDTSKNQFSLKLNSVTAADTAVYYCARGGYDFWSGYFDYWGQGTLVTVSS
VL: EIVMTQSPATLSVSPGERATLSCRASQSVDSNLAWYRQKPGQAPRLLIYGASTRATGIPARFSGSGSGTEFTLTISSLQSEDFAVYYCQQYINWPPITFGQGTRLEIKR
IC50, inhibition of growth/survival of U-87 MG cells [1]: < 100 nM

binding result [2]: binds
binding result [3]: binds
binding result [4]: binds
binding result [5]: binds
binding result [6]: no binding
binding result [7]: no binding
B2: antibody 2.4.4 (antibody, human IgG2, kappa, V domains shown)
VH: QVQLKESGPGLVKPSQTLSLTCTVSGGSISSGVYYWSWIRQHPGKGLEWIGYFYYSGNTYHNPSLKSRVTISVDTSKNQFSLKLSSVTAADTAVYYCARDRSGYDHPDAFDIWGQGTMVTVSS
VL: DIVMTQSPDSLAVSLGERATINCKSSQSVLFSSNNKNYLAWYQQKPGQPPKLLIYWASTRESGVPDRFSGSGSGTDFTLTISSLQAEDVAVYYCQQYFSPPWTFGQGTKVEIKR
notes: also called FITC-labeled antibody 2.4.4
IC50, inhibition of growth/survival of U-87 MG cells [1]: < 100 nM
